# From patent US9994644B2, “mAB 2 anti-Met antibody” (Agency for Science, Technology and Research, priority 2013, dated 2018)
# “Also recorded” adds a separate entry of the source.
# B1: mAb 2: murine bivalent anti-α-chain c-Met monoclonal antibody, IgG1, kappa; CDRs SEQ ID NO: 2-7; epitope IEE and CPDC (antibody, listed as Homo sapiens)
# heavy: QVQLKESGGGLVQPGGSLTLSCATSGFTFTDHYMSWVRQPPGKALEWLAFIRNKAKGYTTEYNASVRGRFTISRDNSQNIVYLQMNTLRTEDSATYYCARDGVGIAYWGQTLVTVSAAKTTPPSVYPLAP
# light: SIVMTQSPLSLPVSLGDQASISCRSSQSLENINGNTYKNWYFQKPGQSPQLLIYRVSNRVSGVLDRFSGSGSGTDFTLKITRVEAEDLGVYFCLQVTHVPWTFGGGTKLEIKRADAAPTKSIS
# Columns and labels:
# [1] = biological target: T1, native c-Met on live SNU-5 cells (Homo sapiens, UniProt P08581); assay: Flow cytometry of antibody binding to live SNU-5 cells; conditions: 1 μg/mL mAb, FITC secondary antibody
# T1 construct: native c-Met expressed on the cell surface of SNU-5 cells; host or cells: SNU-5
# T1 sequence (P08581 25-1390): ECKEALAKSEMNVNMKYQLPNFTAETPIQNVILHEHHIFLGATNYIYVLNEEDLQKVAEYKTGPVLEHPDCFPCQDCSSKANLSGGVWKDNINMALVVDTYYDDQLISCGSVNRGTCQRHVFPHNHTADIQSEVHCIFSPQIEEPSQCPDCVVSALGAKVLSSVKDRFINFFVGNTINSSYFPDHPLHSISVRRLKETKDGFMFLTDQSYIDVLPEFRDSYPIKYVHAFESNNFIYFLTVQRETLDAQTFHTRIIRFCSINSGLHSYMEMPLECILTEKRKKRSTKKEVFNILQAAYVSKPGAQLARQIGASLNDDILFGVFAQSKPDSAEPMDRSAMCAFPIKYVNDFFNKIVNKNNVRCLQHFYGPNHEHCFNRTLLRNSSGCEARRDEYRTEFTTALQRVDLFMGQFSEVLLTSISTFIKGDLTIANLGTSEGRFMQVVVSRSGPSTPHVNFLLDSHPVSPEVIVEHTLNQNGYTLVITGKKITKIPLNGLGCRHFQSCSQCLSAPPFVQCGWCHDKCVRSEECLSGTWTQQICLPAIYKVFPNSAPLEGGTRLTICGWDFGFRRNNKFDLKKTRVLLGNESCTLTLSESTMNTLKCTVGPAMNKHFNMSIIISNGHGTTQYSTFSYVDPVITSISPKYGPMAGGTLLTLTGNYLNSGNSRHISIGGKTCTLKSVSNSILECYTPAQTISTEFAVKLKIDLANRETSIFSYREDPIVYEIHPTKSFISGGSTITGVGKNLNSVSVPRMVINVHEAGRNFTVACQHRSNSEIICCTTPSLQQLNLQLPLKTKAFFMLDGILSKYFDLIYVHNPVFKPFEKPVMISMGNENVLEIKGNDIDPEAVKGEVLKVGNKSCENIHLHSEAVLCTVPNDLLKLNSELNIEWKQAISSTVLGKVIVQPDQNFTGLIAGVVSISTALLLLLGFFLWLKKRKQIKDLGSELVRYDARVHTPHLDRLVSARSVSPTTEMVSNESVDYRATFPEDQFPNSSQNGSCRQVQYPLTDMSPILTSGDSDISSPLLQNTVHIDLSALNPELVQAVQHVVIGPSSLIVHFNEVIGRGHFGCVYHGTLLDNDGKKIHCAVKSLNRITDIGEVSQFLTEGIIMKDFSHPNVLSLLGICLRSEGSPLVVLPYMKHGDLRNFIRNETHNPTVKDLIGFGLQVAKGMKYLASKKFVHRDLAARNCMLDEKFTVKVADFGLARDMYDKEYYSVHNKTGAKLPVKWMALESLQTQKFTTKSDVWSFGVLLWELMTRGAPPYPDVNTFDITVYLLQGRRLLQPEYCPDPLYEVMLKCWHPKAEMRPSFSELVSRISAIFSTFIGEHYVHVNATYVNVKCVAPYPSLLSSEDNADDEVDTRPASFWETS
# Experimental: Flow cytometry was used to determine if our monoclonal antibodies could bind to native c-Met on live cells. SNU-5 cells were incubated with 1 μg/mL of monoclonal antibody. Binding of anti-α-chain c-Met monoclonal antibodies to native c-Met expressed on the cell surface of SNU-5 cells was detected using anti-mouse secondary antibody conjugated with FITC dye. T47D, a human breast cancer cell line expressing low levels of c-Met, was used in this assay to determine if the antibodies bind non-specifically to the cell surface.
# SNU-5 cells (1×10^6 cells) were washed once in cold PBS before blocking in 1% BSA/PBS. Cells were washed twice before incubating with anti-α-chain c-Met monoclonal antibodies. 1 μg/mL anti-α-chain monoclonal antibodies were used. Cells were incubated with goat anti-mouse IgG FITC-conjugated secondary antibodies (Invitrogen) and finally resuspended in 1% BSA/PBS. Flow cytometry was performed using Becton Dickinson (U.S.A.) FACScan. Cell Quest (Becton Dickinson) and FlowJo (Tree Star Inc., U.S.A.) software was used for data analysis.
# SNU-5 cells = assay: Immunofluorescence of antibody internalisation; assay type: cell-based, human; conditions: SNU-5, 10 μg/mL mAb
# Experimental: In order to determine if mAb 2 and 13 were internalised into the cell upon antibody binding, SNU-5 cells were incubated with 10 μg/mL of anti-α-chain monoclonal antibody. Monoclonal antibody treated cells were fixed and permeablised. Bound and internalised antibody was detected by anti-mouse Alexa Fluor®488-conjugated secondary antibody. Antibody localisation was observed by confocal microscopy.
# 10 μg/mL of anti-α-chain monoclonal antibody were incubated with live SNU-5 cells for 1 hr at 4° C. or 37° C. Antibody-treated cells were washed once with PBS and deposited onto polylysine-coated slides (Thermo Scientific, #5991056) using the Thermo Shandon Cytospin 3 Cytofuge (Thermo Scientific) at 800 rpm for 5 mins and fixed immediately in 4% paraformaldehyde. Cells were then blocked and permeablised in PBS containing 0.4% Triton X-100 and 5% BSA. Bound anti-α-chain c-Met antibodies were detected using anti-mouse Alexa Fluor®488-conjugated secondary antibody. Phallodin was added together with the secondary antibodies. Cells were washed before staining with 4′,6′-diamidino-2-phenylindole (DAPI) and mounted with Hydromount (National Diagnostics, U.S.A.) containing 2.5% DABCO (1,4-Diazabicyclo-[2.2.2]octane) (Sigma-Aldrich) as an anti-bleaching agent Immunofluorescence was observed using Nikon Eclipse E600 microscope.
molecule,measurement,setting,value
B1,binding to native c-Met (fluorescence intensity),[1],strongest fluorescence intensity; also recorded: strongest binding; also recorded: highest fluorescence staining; also recorded: high affinity and specificity; also recorded: strongly
same,internalisation into the cell,SNU-5 cells,internalised upon binding to c-Met; also recorded: internalised into the tumour cell
same,antibody localisation at 4° C.,"SNU-5 cells; 1 hr, 4° C.",localised on the cell membrane with diffused cytoplasmic staining
same,antibody localisation at 37° C.,"SNU-5 cells; 1 hr, 37° C.",increase staining was observed in the cytoplasm
